From paper PMC12482648, “G-quadruplex structural motifs modulate protein–RNA interactions within the transcriptome”

How the values were obtained:
[1] = biological target: T1, FUS C-terminal RNA-binding module (His6-FUS) (UniProt P35637 269-526); experiment: EMSA; 150 mM KCl; supershift with anti-His; EMSA: 1 uM RNA, 0/0.1/1/5 uM His6-FUS, 50 mM HEPES-KOH (or HEPES-LiOH) pH 7.4, 150 mM KCl (or LiCl), 200 ng BSA, 2 mM EDTA, 2 mM DTT, 5% glycerol, 30 min 30 C; settings: protein: recombinant, tags: His6 (pET28a-TEV), label: none (SYBR Gold stain)
T1 sequence (P35637 269-526): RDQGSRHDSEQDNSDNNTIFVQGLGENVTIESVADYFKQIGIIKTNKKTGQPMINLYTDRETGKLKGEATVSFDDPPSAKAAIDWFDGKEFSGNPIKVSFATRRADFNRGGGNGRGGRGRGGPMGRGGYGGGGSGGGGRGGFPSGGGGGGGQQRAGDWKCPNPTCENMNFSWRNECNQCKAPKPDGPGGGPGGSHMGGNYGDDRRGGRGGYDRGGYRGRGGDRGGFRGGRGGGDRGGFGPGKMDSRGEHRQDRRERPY

[2] = biological target: T1, FUS C-terminal RNA-binding module …; experiment: EMSA; 150 mM KCl; EMSA: 1 uM RNA, 0/0.1/1/5 uM His6-FUS, 50 mM HEPES-KOH (or HEPES-LiOH) pH 7.4, 150 mM KCl (or LiCl), 200 ng BSA, 2 mM EDTA, 2 mM DTT, 5% glycerol, 30 min 30 C; settings: protein: recombinant; tags: His6 (pET28a-TEV); label: none (SYBR Gold stain); none (non-G4)

Binder | binding result ([1]; intramolecular G4 (in K+)) | binding result [2] | other results
AGGGGGAGGGUGUGGGGGCAGUGAGGGU (structured_RNA) [28RPL23A WT] | binds |  | 
AGUGUGAGUGUGUGUGUGCAGUGAGUGU (ssRNA) [28RPL23A mutant] |  | no binding | 
UGGUGCGCGGGUCCCGGGGAGGGGA (structured_RNA) [25COPS9 WT] |  |  | binding result ([1]; G4 (in K+)): binds
UGUUGCGCGUGUCCCGUGGAGUGGA (ssRNA) [25COPS9 mutant] |  | no binding | 
UUAGGGUUAGGGUUAGGGUUAGGG (structured_RNA) [TERRA WT] | binds |  | 
